Source: the Immune Epitope Database (IEDB)

How the values were obtained:
HLA-B*46:01 [1] = experiment: IEDB peptide-MHC binding, purified MHC/competitive/fluorescence; filed as Kd, often an IC50 or EC50 that approximates it; ≥ and ≤ were set here for values at or beyond the usual limits of such assays
HLA-B*18:01 [2] = experiment: as above
HLA-A*02:19 = experiment: as above
HLA-A*02:12 = experiment: as above
HLA-A*02:03 [3] = experiment: as above; details: source organism: Influenza A virus (A/swine/Italy/1513-1/1998(H1N1))
HLA-B*57:01 [4] = experiment: as above
HLA-A*69:01 [5] = experiment: as above; details: source organism: Influenza A virus (A/swine/Italy/1513-1/1998(H1N1))
HLA-A*31:01 [6] = experiment: as above; details: source organism: Influenza A virus (A/swine/Italy/1513-1/1998(H1N1))
HLA-B*15:17 [7] = experiment: as above; details: source organism: Influenza A virus (A/swine/Italy/1513-1/1998(H1N1))
HLA-A*68:02 [8] = experiment: as above; details: source organism: Influenza A virus (A/swine/Italy/1513-1/1998(H1N1))
HLA-B*27:03 = experiment: as above
HLA-B*15:01 [9] = experiment: as above
HLA-A*24:03 = experiment: as above
HLA-A*26:01 [10] = experiment: as above
HLA-B*39:01 = experiment: as above
HLA-B*51:01 = experiment: as above
HLA-A*03:01 [11] = experiment: as above; details: source organism: Vibrio parahaemolyticus K5030
HLA-A*02:11 = experiment: as above; details: source organism: Vibrio parahaemolyticus K5030
HLA-A*29:02 = experiment: as above; details: source organism: Vibrio parahaemolyticus K5030
HLA-A*02:01 [12] = experiment: as above; details: source organism: Vibrio parahaemolyticus K5030
HLA-A*02:17 = experiment: IEDB peptide-MHC binding, purified MHC/competitive/radioactivity; filed as Kd, often an IC50 or EC50 that approximates it; ≥ and ≤ were set here for values at or beyond the usual limits of such assays
HLA-A*02:01 [13] = experiment: as above
HLA-B*08:01 [14] = experiment: as above; details: source organism: Dengue virus 1 Brazil/97-11/1997
HLA-A*03:01 [15] = experiment: IEDB peptide-MHC binding, purified MHC/direct/fluorescence; filed as Kd, often an IC50 or EC50 that approximates it; ≥ and ≤ were set here for values at or beyond the usual limits of such assays; details: source organism: Marburg virus - Musoke, Kenya, 1980
HLA-B*46:01 [16] = experiment: as above; details: source organism: Marburg virus - Musoke, Kenya, 1980
HLA-B*18:01 [17] = experiment: as above; details: source organism: Marburg virus - Musoke, Kenya, 1980
HLA-A*26:02 = experiment: as above; details: source organism: Ravn virus - Ravn, Kenya, 1987
HLA-B*08:03 = experiment: as above; details: source organism: Ravn virus - Ravn, Kenya, 1987
HLA-B*07:02 = experiment: as above; details: source organism: Marburg virus - Musoke, Kenya, 1980
HLA-B*27:05 = experiment: as above; details: source organism: Marburg virus - Musoke, Kenya, 1980
HLA-B*40:01 = experiment: as above; details: source organism: Marburg virus - Musoke, Kenya, 1980
HLA-A*02:01 [18] = experiment: as above; details: source organism: Marburg virus - Musoke, Kenya, 1980
HLA-A*01:01 = experiment: as above; details: source organism: Marburg virus - Musoke, Kenya, 1980
HLA-B*57:01 [19] = experiment: as above; details: source organism: Marburg virus - Musoke, Kenya, 1980
HLA-B*48:01 = experiment: as above; details: source organism: Marburg virus - Musoke, Kenya, 1980
HLA-A*69:01 [20] = experiment: as above; details: source organism: Marburg virus - Musoke, Kenya, 1980
HLA-A*31:01 [21] = experiment: as above; details: source organism: Marburg virus - Musoke, Kenya, 1980
HLA-B*15:17 [22] = experiment: as above; details: source organism: Marburg virus - Musoke, Kenya, 1980
HLA-B*58:01 = experiment: as above; details: source organism: Marburg virus - Musoke, Kenya, 1980
HLA-A*68:02 [23] = experiment: as above; details: source organism: Marburg virus - Musoke, Kenya, 1980
HLA-B*15:01 [24] = experiment: as above; details: source organism: Marburg virus - Musoke, Kenya, 1980
HLA-A*11:01 = experiment: as above; details: source organism: Marburg virus - Musoke, Kenya, 1980
HLA-B*08:01 [25] = experiment: as above; details: source organism: Ravn virus - Ravn, Kenya, 1987
HLA-A*26:01 [26] = experiment: as above; details: source organism: Ravn virus - Ravn, Kenya, 1987
HLA-C*05:01 = experiment: as above; details: source organism: Vaccinia virus Copenhagen
HLA-A*02:06 = experiment: IEDB peptide-MHC binding, purified MHC/competitive/radioactivity; filed as Kd, often an IC50 or EC50 that approximates it; ≥ and ≤ were set here for values at or beyond the usual limits of such assays
HLA-A*02:03 [27] = experiment: as above
[28] = source organism: Influenza A virus (A/swine/Italy/1513-1/1998(H1N1))
[29] = source organism: Vibrio parahaemolyticus K5030
[30] = source organism: Dengue virus 1 Singapore/S275/1990
[31] = source organism: Dengue virus 2 Jamaica/1409/1983
[32] = source organism: Dengue virus 4 Philippines/H241/1956

Measured: Kd

MMWEINGPK
≥ 20 µM: HLA-B*46:01 [1]; [28] | HLA-B*18:01 [2]; [28] | HLA-A*02:19; [28] | HLA-A*02:12; [28] | HLA-A*02:03 [3] | HLA-B*57:01 [4]; [28] | HLA-A*69:01 [5] | HLA-B*15:17 [7] | HLA-A*68:02 [8] | HLA-B*27:03; [28] | HLA-B*15:01 [9]; [28] | HLA-A*24:03; [28] | HLA-A*26:01 [10]; [28] | HLA-B*39:01; [28] | HLA-B*51:01; [28]
0.0751 µM: HLA-A*31:01 [6]

WLGDVWQEK
0.0251 µM: HLA-A*02:11
≥ 20 µM: HLA-A*03:01 [11] | HLA-B*46:01 [1]; [29] | HLA-B*18:01 [2]; [29] | HLA-A*02:19; [29] | HLA-A*02:12; [29] | HLA-A*29:02 | HLA-A*02:01 [12] | HLA-B*57:01 [4]; [29] | HLA-B*27:03; [29] | HLA-B*15:01 [9]; [29] | HLA-A*24:03; [29] | HLA-A*26:01 [10]; [29] | HLA-B*39:01; [29] | HLA-B*51:01; [29]

ILLMLVTPSM
0.16 µM: HLA-B*08:01 [14]
1.11 µM: HLA-A*02:17; [30]
0.102 µM: HLA-A*02:01 [13]; [30]

QVGIFLICK
≥ 20 µM: HLA-A*03:01 [15] | HLA-B*46:01 [16] | HLA-B*18:01 [17] | HLA-A*26:02 | HLA-B*08:03 | HLA-B*07:02 | HLA-B*27:05 | HLA-B*40:01 | HLA-A*02:01 [18] | HLA-A*01:01 | HLA-B*57:01 [19] | HLA-B*48:01 | HLA-A*69:01 [20] | HLA-A*31:01 [21] | HLA-B*15:17 [22] | HLA-B*58:01 | HLA-A*68:02 [23] | HLA-B*15:01 [24] | HLA-B*08:01 [25] | HLA-A*26:01 [26]
2.8 µM: HLA-A*11:01

RLITANPIV
0.121 µM: HLA-A*02:17; [30]
0.0613 µM: HLA-A*02:01 [13]; [30]

RLLTKPWDV
0.0276 µM: HLA-A*02:01 [13]; [31]
1.43 µM: HLA-A*02:17; [31]

FPSVFINPI
≥ 20 µM: HLA-C*05:01

GLYPLAIPV
0.00042 µM: HLA-A*02:03 [27]; [32]
0.00106 µM: HLA-A*02:01 [13]; [32]
0.0538 µM: HLA-A*02:17; [32]
0.125 µM: HLA-A*02:06; [32]

DLMEFIDGI
1.97 µM: HLA-A*02:17; [32]
0.0742 µM: HLA-A*02:01 [13]; [32]

KLAEAIFKL
0.0148 µM: HLA-A*02:06; [31]
0.0191 µM: HLA-A*02:17; [31]
0.00868 µM: HLA-A*02:03 [27]; [31]
